The source of these data is US8715959B2, “Substitution mutant receptors and their use in a nuclear receptor-based inducible gene expression system” (priority 2001, dated 2014).

The assay deals with CfEcR-DEF. Description: GAL4/mutant CfEcR-DEF + VP16/LmUSP-EF GAL4-driven luciferase reporter transactivation in NIH3T3 cells. Format: cell-based, Choristoneura fumiferana. Conditions: NIH3T3 cells, relative to Gal4/wild-type CfEcR-DEF switch activity; for Fold increase over WT, 2.5 μM GS™-E: 2.5 μM GS™-E non-steroidal ligand; for Fold increase over WT, 2.5 μM PonA: 2.5 μM PonA steroidal ligand. As for the experimental part: DNAs corresponding to the various switch constructs outlined in Example 1, specifically switches 1.1-1.13, were transfected into mouse NIH3T3 cells (ATCC) or L57 cells (Dr. Peter Cherbas; Indiana University) as follows. Standard methods for culture and maintenance of the cells were followed. […] Superfect™ (Qiagen Inc.) was used for 3T3 cells and Lipofectamine™ (LifeTechnologies) was used for L57 cells as the transfection reagents. For 12-well plates, 4 μl of Superfect™ or Lipofectamine™ was mixed with 100 μl of growth medium. One μg of reporter construct and 0.25 μg of each receptor construct of the receptor pair to be analyzed were added to the transfection mix. […] The cells were harvested and reporter activity was assayed.
Cells were harvested 40 hours after adding ligands. […] Twenty μl of lysate were assayed.
Briefly, Applicants mutated amino acid residues predicted to be critical for ecdysteroid binding into alanine and created GAL4/mutantCfEcR-DEF cDNA gene expression cassettes as described in Example 1 above using the Quikchange PCR-mediated site-directed mutagenesis kit (Stratagene, La Jolla, Calif.). The mutated and the WT cDNAs were tested in GAL4-driven luciferase reporter assays.
DNAs corresponding to the various switch constructs outlined in Example 1, specifically switches 1.1-1.2, were transfected into mouse NIH3T3 cells (ATCC) as follows. […] Two μl of Superfect™ was mixed with 100 μl of growth medium and 50 ng of either GAL4/wild-type EcR or Gal4/mutant EcR cassette, 50 ng of VP16/LmUSP-EF and 200 ng of pFRLuc were added to the transfection mix. […] The cells were harvested and reporter activity was assayed as described above.
Background: Reporter assays use an easily measured gene product as a stand-in for the process of interest.

B1: I62A: CfEcR-DEF LBD substitution mutant, Isoleucine (I) to Alanine (A) (protein, listed as Choristoneura fumiferana)
chain: LTANQQFLIARLIWYQDGYEQPSDEDLKRITQTWQQADDENEESDTPFRQITEMTILTVQLAVEFAKGLPGFAKISQPDQITLLKACSSEVMMLRVARRYDAASDSVLFANNQAYTRDNYRKAGMAYVIEDLLHFCRCMYSMALDNIHYALLTAVVIFSDRPGLEQPQLVEEIQRYYLNTLRIYILNQLSGSARSSVIYGKILSILSELRTLGMQNSNMCISLKLKNRKLPPFLEEIWDV
For the molecule B1, the “Fold increase over WT, 2.5 μM GS™-E” value was found to be 0.12 fold and the “Fold increase over WT, 2.5 μM PonA” value worked out at 0.004 fold.

B2: L230A: CfEcR-DEF LBD substitution mutant, Leucine (L) to Alanine (A) (protein, listed as Choristoneura fumiferana)
chain: LTANQQFLIARLIWYQDGYEQPSDEDLKRITQTWQQADDENEESDTPFRQITEMTILTVQLIVEFAKGLPGFAKISQPDQITLLKACSSEVMMLRVARRYDAASDSVLFANNQAYTRDNYRKAGMAYVIEDLLHFCRCMYSMALDNIHYALLTAVVIFSDRPGLEQPQLVEEIQRYYLNTLRIYILNQLSGSARSSVIYGKILSILSELRTLGMQNSNMCISLKLKNRKAPPFLEEIWDV
For B2, the “Fold increase over WT, 2.5 μM GS™-E” value is 0.001 fold and the “Fold increase over WT, 2.5 μM PonA” value is given as 0.006 fold.

B3: M125A: CfEcR-DEF LBD substitution mutant, Methionine (M) to Alanine (A) (protein, listed as Choristoneura fumiferana)
chain: LTANQQFLIARLIWYQDGYEQPSDEDLKRITQTWQQADDENEESDTPFRQITEMTILTVQLIVEFAKGLPGFAKISQPDQITLLKACSSEVMMLRVARRYDAASDSVLFANNQAYTRDNYRKAGAAYVIEDLLHFCRCMYSMALDNIHYALLTAVVIFSDRPGLEQPQLVEEIQRYYLNTLRIYILNQLSGSARSSVIYGKILSILSELRTLGMQNSNMCISLKLKNRKLPPFLEEIWDV
In the case of B3, the “Fold increase over WT, 2.5 μM GS™-E” value is 0.005 fold and the “Fold increase over WT, 2.5 μM PonA” value turned out to be 0.007 fold.

B4: Y120A: CfEcR-DEF LBD substitution mutant, Tyrosine (Y) to Alanine (A) (protein, listed as Choristoneura fumiferana)
chain: LTANQQFLIARLIWYQDGYEQPSDEDLKRITQTWQQADDENEESDTPFRQITEMTILTVQLIVEFAKGLPGFAKISQPDQITLLKACSSEVMMLRVARRYDAASDSVLFANNQAYTRDNARKAGMAYVIEDLLHFCRCMYSMALDNIHYALLTAVVIFSDRPGLEQPQLVEEIQRYYLNTLRIYILNQLSGSARSSVIYGKILSILSELRTLGMQNSNMCISLKLKNRKLPPFLEEIWDV
Regarding B4, the “Fold increase over WT, 2.5 μM GS™-E” value was 0.001 fold and the “Fold increase over WT, 2.5 μM PonA” value was determined as 0.006 fold.

B5: F109A: CfEcR-DEF LBD substitution mutant, Phenylalanine (F) to Alanine (A) (protein, listed as Choristoneura fumiferana)
chain: LTANQQFLIARLIWYQDGYEQPSDEDLKRITQTWQQADDENEESDTPFRQITEMTILTVQLIVEFAKGLPGFAKISQPDQITLLKACSSEVMMLRVARRYDAASDSVLAANNQAYTRDNYRKAGMAYVIEDLLHFCRCMYSMALDNIHYALLTAVVIFSDRPGLEQPQLVEEIQRYYLNTLRIYILNQLSGSARSSVIYGKILSILSELRTLGMQNSNMCISLKLKNRKLPPFLEEIWDV
B5: the “Fold increase over WT, 2.5 μM GS™-E” value is recorded as 0.22 fold and the “Fold increase over WT, 2.5 μM PonA” value was determined as 0.005 fold.

B6: L234A: CfEcR-DEF LBD substitution mutant, Leucine (L) to Alanine (A) (protein, listed as Choristoneura fumiferana)
chain: LTANQQFLIARLIWYQDGYEQPSDEDLKRITQTWQQADDENEESDTPFRQITEMTILTVQLIVEFAKGLPGFAKISQPDQITLLKACSSEVMMLRVARRYDAASDSVLFANNQAYTRDNYRKAGMAYVIEDLLHFCRCMYSMALDNIHYALLTAVVIFSDRPGLEQPQLVEEIQRYYLNTLRIYILNQLSGSARSSVIYGKILSILSELRTLGMQNSNMCISLKLKNRKLPPFAEEIWDV
Consider B6, for which the “Fold increase over WT, 2.5 μM GS™-E” value came to 0.001 fold and the “Fold increase over WT, 2.5 μM PonA” value turned out to be 0.006 fold.

B7: R95A: CfEcR-DEF LBD substitution mutant, Arginine (R) to Alanine (A) (protein, listed as Choristoneura fumiferana)
chain: LTANQQFLIARLIWYQDGYEQPSDEDLKRITQTWQQADDENEESDTPFRQITEMTILTVQLIVEFAKGLPGFAKISQPDQITLLKACSSEVMMLAVARRYDAASDSVLFANNQAYTRDNYRKAGMAYVIEDLLHFCRCMYSMALDNIHYALLTAVVIFSDRPGLEQPQLVEEIQRYYLNTLRIYILNQLSGSARSSVIYGKILSILSELRTLGMQNSNMCISLKLKNRKLPPFLEEIWDV
Take B7: the “Fold increase over WT, 2.5 μM GS™-E” value was determined as 0.4 fold and the “Fold increase over WT, 2.5 μM PonA” value amounted to 0.006 fold.

B8: W238A: CfEcR-DEF LBD substitution mutant, Tryptophan (W) to Alanine (A) (protein, listed as Choristoneura fumiferana)
chain: LTANQQFLIARLIWYQDGYEQPSDEDLKRITQTWQQADDENEESDTPFRQITEMTILTVQLIVEFAKGLPGFAKISQPDQITLLKACSSEVMMLRVARRYDAASDSVLFANNQAYTRDNYRKAGMAYVIEDLLHFCRCMYSMALDNIHYALLTAVVIFSDRPGLEQPQLVEEIQRYYLNTLRIYILNQLSGSARSSVIYGKILSILSELRTLGMQNSNMCISLKLKNRKLPPFLEEIADV
B8: the “Fold increase over WT, 2.5 μM GS™-E” value is 0.002 fold and the “Fold increase over WT, 2.5 μM PonA” value worked out at 0.013 fold.

B9: M93A: CfEcR-DEF LBD substitution mutant, Methionine (M) to Alanine (A) (protein, listed as Choristoneura fumiferana)
chain: LTANQQFLIARLIWYQDGYEQPSDEDLKRITQTWQQADDENEESDTPFRQITEMTILTVQLIVEFAKGLPGFAKISQPDQITLLKACSSEVMALRVARRYDAASDSVLFANNQAYTRDNYRKAGMAYVIEDLLHFCRCMYSMALDNIHYALLTAVVIFSDRPGLEQPQLVEEIQRYYLNTLRIYILNQLSGSARSSVIYGKILSILSELRTLGMQNSNMCISLKLKNRKLPPFLEEIWDV
For the molecule B9, the “Fold increase over WT, 2.5 μM GS™-E” value came out at 0.46 fold and the “Fold increase over WT, 2.5 μM PonA” value was determined as 0.07 fold.

B10: A123F: CfEcR-DEF LBD substitution mutant, Alanine (A) to Phenylalanine (F) (protein, listed as Choristoneura fumiferana)
chain: LTANQQFLIARLIWYQDGYEQPSDEDLKRITQTWQQADDENEESDTPFRQITEMTILTVQLIVEFAKGLPGFAKISQPDQITLLKACSSEVMMLRVARRYDAASDSVLFANNQAYTRDNYRKFGMAYVIEDLLHFCRCMYSMALDNIHYALLTAVVIFSDRPGLEQPQLVEEIQRYYLNTLRIYILNQLSGSARSSVIYGKILSILSELRTLGMQNSNMCISLKLKNRKLPPFLEEIWDV
With B10, the “Fold increase over WT, 2.5 μM GS™-E” value was determined as 0.09 fold and the “Fold increase over WT, 2.5 μM PonA” value came out at 0.005 fold.

B11: L223A: CfEcR-DEF LBD substitution mutant, Leucine (L) to Alanine (A) (protein, listed as Choristoneura fumiferana)
chain: LTANQQFLIARLIWYQDGYEQPSDEDLKRITQTWQQADDENEESDTPFRQITEMTILTVQLIVEFAKGLPGFAKISQPDQITLLKACSSEVMMLRVARRYDAASDSVLFANNQAYTRDNYRKAGMAYVIEDLLHFCRCMYSMALDNIHYALLTAVVIFSDRPGLEQPQLVEEIQRYYLNTLRIYILNQLSGSARSSVIYGKILSILSELRTLGMQNSNMCISAKLKNRKLPPFLEEIWDV
For the molecule B11, the “Fold increase over WT, 2.5 μM GS™-E” value came out at 0.118 fold and the “Fold increase over WT, 2.5 μM PonA” value came out at 0.007 fold.
